T1: full-length pro-IL-1H4
T1 chain: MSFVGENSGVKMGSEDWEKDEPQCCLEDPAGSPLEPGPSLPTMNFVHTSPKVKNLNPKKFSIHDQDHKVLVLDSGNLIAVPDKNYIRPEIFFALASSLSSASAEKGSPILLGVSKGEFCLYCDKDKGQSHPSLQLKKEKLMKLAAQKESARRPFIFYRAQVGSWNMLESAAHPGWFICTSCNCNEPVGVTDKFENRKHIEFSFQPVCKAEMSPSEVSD

B1: caspase 4 (protein)
chain: QISPNKKAHPNMEAGPPESGESTDALKLCPHEEFLRLCKERAEEIYPIKERNNRTRLALIICNTEFDHLPPRNGADFDITGMKELLEGLDYSVDVEENLTARDMESALRAFATRPEHKSSDSTFLVLMSHGILEGICGTVHDEKKPDVLLYDTIFQIFNNRNCLSLKDKPKVIIVQACRGANRGELWVRDSPASLEVASSQSSENLEEDAVYKTHVEKDFIAFCSSTPHNVSWRDSTMGSIFITQLITCFQKYSWCCHLEEVFRKVQQSFETPRAKAQMPTIERLSMTRYFYLFPGN
B2: caspase 1 (protein)
chain: NPAMPTSSGSEGNVKLCSLEEAQRIWKQKSAEIYPIMDKSSRTRLALIICNEEFDSIPRRTGAEVDITGMTMLLQNLGYSVDVKKNLTASDMTTELEAFAHRPEHKTSDSTFLVFMSHGIREGICGKKHSEQVPDILQLNAIFNMLNTKNCPSLKDKPKVIIIQACRGDSPGVVWFKDSVGVSGNLSLPTTEEFEDDAIKKAHIEKDFIAFCSSTPDNVSWRHPTMGSVFIGRLIEHMQEYACSCDVEEIFRKVRFSFEQPDGRAQMPTTERVTLTRCFYLFPGH

Target: T1, full-length pro-IL-1H4

Protein	cleavage of pro-IL-1H4	cleavage of pro-IL-1H4 to mature IL-1H4 (SDS polyacrylamide gel)
B1	caspase 4 also cleaved pro-IL-1H4, although not as efficiently as caspase 1	–
B2	–	Caspase 1 at a ratio of 1:50 to 1:5 (caspase:IL-1H4, weight/weight) completely cleaved pro-IL-1H4 to release the mature IL-1H4

From patent US20020052473
